Among the data in the RNAGym collection of RNA variant scans (doi:10.1093/molbev/msab373) are reverse-splicing fitness values, retold here.

B1: Azoarcus group I ribozyme (parent)
chain: GUGCCUUGCGCCGGGAAACCACGCAAGGGAUGGUGUCAAAUUCGGCGAAACCUAAGCGCCCGCCCGGGCGUAUGGCAACGCCGAGCCAAGCUUCGGCGCCUGCGCCGAUGAAGGUGUAGAGACUAGACGGCACCCACCUAAGGCAAACGCUAUGGUGAAGGCAUAGUCCAGGGAGUGGCGAAAGUCACACAAACCGG

Variants of B1 are the subject of this series. The series is described as follows: reverse-splicing fitness (ratio to wild type); higher = more active; in vitro selection; Mg2+ level not given. The method, boiled down: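 An in vitro group I ribozyme library with randomized positions was T7-transcribed and gel-purified. In triplicate, 10 pmol RNA in EPPS pH 7.5 was reacted with 50 pmoles of a 30-nt RNA substrate for 1 h at 37 °C across several added MgCl2 levels (1–48 mM), then stopped with EDTA. Products were reverse transcribed from a substrate-complementary primer, PCR-amplified and sequenced (HiSeq 4000). Fitness is a variant's read proportion after selection over that before, normalised to wild type.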
Turning to A111G A145U C150G U176A, the reverse-splicing fitness amounted to 0.17.
Then C82A A111C A120U A145U C150A C169G U176G, with 0.00247.
As to C82G A120U C150G C169U, the reverse-splicing fitness turned out to be 0.00456.
With C82A A111C A120C A145G C169G U176G, the reverse-splicing fitness turned out to be 0.00694.
For C82U A111G A120G A145U C150G C169A U176C, the reverse-splicing fitness came to 0.00917.
The same measure for C82U A111C A120C A145U C150A C169G U176C: 0.015.
Then C82G A111C A120G C150A C169G U176G, with 0.00569.
Then C82A A111C A120C C169G U176A, with 0.0174; and C82G A120C A145G U176A, with 0.0722.
C82G A111U A120C A145U C169U: the reverse-splicing fitness was found to be 0.0143.
The same measure for C82U C150A C169A: 0.0107.
For C82G A111U C150G C169G U176G, the reverse-splicing fitness stood at 0.00662.
For A120U A145G C150G C169U U176G, the reverse-splicing fitness was found to be 0.0045.
Then C82G A111C A120C A145C C150U C169A, with 0.00728.
Regarding A111G A145U C150U, the reverse-splicing fitness came out at 0.952.
The same measure for C82G A111C A120C A145C U176C: 0.0241.
Take C82G A111G A145C C150A C169U U176G: the reverse-splicing fitness was determined as 0.00582.
A111C A120G A145U C150U C169G U176A: the reverse-splicing fitness came out at 0.0211.
Then A111G A120G A145U C150A C169U U176A, with 0.0273; and C82U A111G A120U A145G C150U C169A U176A, with 0.00487.
The same measure for C82A A111G A120U A145G C169G U176G: 0.00191; for A111U A120U C150G U176C: 0.0189.
The same measure for A120U A145G C150G C169A U176C: 0.00713.
On to C82U A145G C150U C169U U176G, for which the reverse-splicing fitness turned out to be 0.00493.
Then C82A A111G A145C C150G C169G, with 0.00702; and C82G A111G A120U A145C C150U U176G, with 0.00303; and C82G A111U A120C A145U C150U C169U U176G, with 0.00575.
The same measure for A111G A120U A145U C150A U176G: 0.018; for A111C A120U A145C C169G U176C: 0.00626.
The same measure for C82G A111U A145C C150U C169U U176C: 0.0098; for C82A A120C A145C C150U C169G U176A: 0.0287.
Regarding A111C A120U C150A C169G, the reverse-splicing fitness was 0.00691.
In the case of C82A A111C A145C C150U C169G U176A, the reverse-splicing fitness was 0.0253.
The same measure for C82U A111U A120C C150A U176G: 0.0056.
Then C82A A111G A120C A145U C150G C169U U176C, with 0.0102; and C82G A111G A120C A145C C169G, with 0.00871.
Then A111U A120G A145U C150A C169G, with 0.0206.
C82G A120U A145G C150G C169A: the reverse-splicing fitness was 0.00872.
The same measure for C82A A111C U176A: 0.0824; for C82G A111G A120U C150U C169A U176C: 0.00376.
Then A111G A120C A145G C169A U176G, with 0.00366; and C82U A111C A120U A145C, with 0.0226; and C82G A111U A120U C150U, with 0.0256.
As for C82A A111U A120C A145C C150A C169U U176G, the reverse-splicing fitness was found to be 0.00621.
On to C82A A111U A120C A145C C150A C169U U176A, for which the reverse-splicing fitness was 0.0157.
The same measure for C82A A111G A120U C150A: 0.00855; for C82G A111C A145G C150A C169G U176G: 0.00825.
With A111G C150G U176G, the reverse-splicing fitness was determined as 0.0168.
The same measure for C82A A111G A120G A145G C150U C169A U176A: 0.016.
The same measure for A111U A120G A145C C150A C169U U176G: 0.00521; for A111G A120U C169U U176C: 0.0395; for C82A A111C A120G C150G U176G: 0.00292.
The same measure for C82U A120G A145G C150U C169G U176A: 0.0132; for A111G A120U A145G C150G C169G U176G: 0.00311; for C82A A111G A145U: 0.431.
Turning to A111C A120U A145C C150A C169A U176A, the reverse-splicing fitness amounted to 0.00259.
Then A111U A120U A145C C150A U176G, with 0.00552.
Then C82G A111C A120U A145U C150A C169U U176G, with 0.00243; and C82G A111G A120C A145G C150U, with 0.0625; and C82G A120C U176C, with 0.107.
The same measure for A111G A120C C150U C169A: 0.012; for C82U A145C C150U C169G U176A: 0.0158; for C82G A120G A145U C150G C169U: 0.01.
Turning to A120C A145C C150A C169G, the reverse-splicing fitness came to 0.00626.
As to C82G A111G A120U A145C C150U C169U U176G, the reverse-splicing fitness was found to be 0.00214.
Then C82U A111C A120U A145G C150A C169A U176A, with 0.00664; and C82U A111G A120C A145C C150A C169U U176A, with 0.0146.
Then C82G A111G A120U A145U C150A C169G U176A, with 0.00229; and C82U A111U A120G A145G C150U, with 0.0119.
The same measure for A111G A120U C150G C169G: 0.0111; for C82A A111U A145C C150A C169A U176C: 0.00757; for C82A A111C A120G A145G C150A C169U U176C: 0.0139.
Take A111C A145C C150A C169G: the reverse-splicing fitness came to 0.00874.
A111C A120U A145G C150G C169A: the reverse-splicing fitness stood at 0.00873.
Turning to C82A A111G A120G A145C C150U C169G U176G, the reverse-splicing fitness was 0.00597.
The same measure for C82G A111G A120U A145G U176G: 0.00435.
The same measure for C82A A111G A120U A145U C169A U176C: 0.00249; for C82U A111U A145U C150A C169U U176A: 0.0133; for C82G A111G A120G A145U C150U C169U U176G: 0.00452.
The same measure for A111U A120U C169G: 0.0555; for C82U A111U A120C C150G C169A U176C: 0.0101; for C82G A111U A145C C150A C169A U176A: 0.0125.
On to A111C A145U C150G C169U U176G, for which the reverse-splicing fitness was 0.00683.
